Data as given in US20110217305A1 (SYMPHOGEN A S, published 2011).

Target: T1, Fc-conjugated HER2 (HER2-Fc), R&D Systems cat. No 1129-ER (human, UniProt P04626 23-652)
T1 construct: Bought reagent; Captured on an anti-Fc surface in the SPR binning; also called rhHER2; HER2 protein (R&D Systems cat.#1129-ER); not shown: Fc part of the bought fusion protein
Experiment: SPR epitope binning (ProteOn XPR36), HER2-Fc captured via anti-Fc; competitor 4387; class limits for the pair

% inhibition: 25 to 50%
B1: antibody 4382 (antibody, human IgG1, kappa, V domains shown)
VH: EVQLQQSGPELVKPGASVKISCTASGYTFTDYYMNWVKQSHGKSLEWIGDINPNNGGTNYNQKWKGKATLTIHKSSSTAYMELRSLTSEDSAVYFCVPGGLRSYFDYWGQGTTLTVSS
VL: DIVMTQSLKFMSASVGDRVSITCKASQDVSAAVAWYQQKPGQSPELLIYWASTRHTGVPDRFTGSGSGTDYTLTISSVQAEDLALYYCQQHYTTPPTFGGGTKLEIKR
notes: Chimeric murine/human IgG1 kappa
